The text below walks through data of patent US20260116991A1 (HAINAN SIMCERE ZAIMING PHARMACEUTICAL, published 2026).

In general, EC50 refers to the concentration at which the effect is half-maximal. By Kd is commonly meant the concentration at which binding is half-saturated. The koff is the first-order rate constant of dissociation. As usually defined, the kon is the rate constant with which the complex forms.

The target of assay [1] is T1, monkey GPC3 on HEK293T-monkey GPC3 cells (monkey).
T1 construct: whole, on cells
The experiment in a line: FACS on HEK293T-monkey GPC3 cells.

The target in another assay is T2, human GPC3-His protein (human, UniProt P51654 25-559, limits assumed).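 Further: flow cell at 25 °C, antigen injected for 240 s at five twofold dilutions starting at 200 nM, dissociation followed up to 600 s, double-referenced sensorgrams.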
T2 construct: also called human GPC3 protein; not shown: His tag
Nature of the assay: SPR, antibody captured on Protein A chip, human GPC3-His injected, 1:1 Langmuir model. (In general: Surface plasmon resonance follows binding to a sensor surface in real time, without labels.)

Procedure for human GPC3-His protein: The flow cell was set at 25° C. The sample block was set at 16° C. Both were pretreated with the running buffer. In each cycle, first, the antibody to be tested was captured using the Protein A chip, and then a single concentration of GPC3 antigen protein was injected. […] The association was determined by injecting different concentrations of human GPC3-His in the solution and maintaining for 240 s, wherein the flow rate was 30 μL/min, and the protein was diluted at a 1:1 dilution ratio from 200 nM to obtain 5 concentrations in total. The dissociation phase was monitored for up to 600 s and triggered by switching from the sample solution to the running buffer. The surface was regenerated by washing with 10 mM glycine solution (pH 1.5) at a flow rate of 30 μL/min for 30 s. The difference in bulk refractive index was corrected by subtracting the responses obtained from the goat anti-human Fc surface. Blank injections (double reference) were also subtracted. To calculate the apparent KD and other kinetic parameters, the Langmuir 1:1 model was used.

B1: hAb005LH1L1b (antibody, human IgG1, V domains shown)
VH: EVQLVQSGAEVKKPGASVKVSCKASGYTFTDYEMHWVRQAPGQGLEWMGAIDPETGNTAYIQKFKGRVTMTTDKSTSTAYMELRSLRSDDTAVYYCTRFYSYSHWGQGTTVTVSS
VL: DIVMTQTPLSLPVTPGEPASISCRSSQSLVHSNRNTYLHWYLQKPGQSPQLLIYKVSNRFSGVPDRFSGSGSGTDFTLKISRVEAEDVGVYYCSQNTHVPPTFGGGTKVEIK
notes: Humanized F3.54.12
As for B1, in assay [1], the EC50 was 2.62 nM and the “Max MFI” value was determined as 24300 MFI. For the same molecule, in the assay with human GPC3-His protein, binding was put at a Kd of 8.49 nM, the koff turned out to be 0.00231 s⁻¹ and the on-rate constant (kon) was found to be 272000 M⁻¹ s⁻¹.

B2: hAb005LH2L1b (antibody, human IgG1, V domains shown)
VH: EVQLVQSGAEVKKPGASVKVSCKASGYTFTDYEMHWVRQAPGQGLEWMGAIDPETGNTAYIQKFKGRVTLTTDKSTSTAYMELRSLRSDDTAVYYCTRFYSYSHWGQGTTVTVSS
VL: DIVMTQTPLSLPVTPGEPASISCRSSQSLVHSNRNTYLHWYLQKPGQSPQLLIYKVSNRFSGVPDRFSGSGSGTDFTLKISRVEAEDVGVYYCSQNTHVPPTFGGGTKVEIK
notes: Humanized F3.54.12
B2: in assay [1], the EC50 is 2.42 nM and the “Max MFI” value was found to be 22800 MFI. Besides, in the assay with human GPC3-His protein, the Kd stood at 7.85 nM, the koff is 0.00213 s⁻¹ and the kon amounted to 271000 M⁻¹ s⁻¹.

B3: hAb003LH1L1 (antibody, human IgG1, V domains shown)
VH: EVQLVQSGAEVKKPGSSVKVSCKASGYTFSDYEMHWVRQAPGQGLEWMGTIDPETGNTAYTQKFMDRVTITADKSTSTAYMELSSLRSEDTAVYYCTRGYSFTYWGQGTLVTVSS
VL: DIVMTQTPLSLPVTPGEPASISCRSSQNIVHSNGNTYLQWYLQKPGQSPQLLIFKVSNRFSGVPDRFSGSGSGTDFTLKISRVEAEDVGVYYCFQGSHVPFTFGQGTKLEIK
notes: Humanized F2.154.1
For the molecule B3, in assay [1], the 50% effective concentration (EC50) was 1.56 nM and the “Max MFI” value was 28200 MFI. In the assay with human GPC3-His protein, this molecule displayed an equilibrium dissociation constant (Kd) of 1.93 nM, a koff of 0.000453 s⁻¹ and a kon of 234000 M⁻¹ s⁻¹.

B4: hAb006LH1L1b (antibody, human IgG1, V domains shown)
VH: EVQLVQSGAEVKKPGSSVKVSCKASGYTFSDYEIHWVRQAPGQGLEWMGAIDPKTGNTAYNQKFMGRVTITADKSTSTAYMELSSLRSEDTAVYYCTRYFSFAYWGQGTLVTVSS
VL: DIVMTQTPLSLPVTPGEPASISCRSSQTFVHSNANTYLQWYLQKPGQSPQLLIYKVSNRFSGVPDRFSGSGSGTDFTLKISRVEAEDVGVYYCFQGSHVPYTFGQGTKLEIK
notes: Humanized F3.38.7
As for B4, in assay [1], the EC50 was determined as 1.73 nM and the “Max MFI” value is 31800 MFI. In the assay with human GPC3-His protein, the Kd is 7.41 nM, the off-rate constant (koff) was found to be 0.00125 s⁻¹ and the on-rate (kon) stood at 168000 M⁻¹ s⁻¹.

B5: hAb003LH2L1b (antibody, human IgG1, V domains shown)
VH: EVQLVQSGAEVKKPGSSVKVSCKASGYRFTDYEMHWVRQAPGQGLEWMGTIDPETGNTAYTQKFMDRVTITADKSTSTAYMELSSLRSEDTAVYYCTRGYSFTYWGQGTLVTVSS
VL: DIVMTQTPLSLPVTPGEPASISCRSSQNIVHSNRNTYLQWYLQKPGQSPQLLIFKVSNRFSGVPDRFSGSGSGTDFTLKISRVEAEDVGVYYCFQGSHVPFTFGQGTKLEIK
notes: Humanized F2.154.1
Consider B5, for which, in assay [1], the EC50 came out at 0.793 nM and the “Max MFI” value stood at 31100 MFI. Also, in the assay with human GPC3-His protein, the Kd is 2.08 nM, the off-rate constant (koff) was 0.000501 s⁻¹ and the kon came out at 240000 M⁻¹ s⁻¹.

B6: hAb003LH1L1b (antibody, human IgG1, V domains shown)
VH: EVQLVQSGAEVKKPGSSVKVSCKASGYTFSDYEMHWVRQAPGQGLEWMGTIDPETGNTAYTQKFMDRVTITADKSTSTAYMELSSLRSEDTAVYYCTRGYSFTYWGQGTLVTVSS
VL: DIVMTQTPLSLPVTPGEPASISCRSSQNIVHSNRNTYLQWYLQKPGQSPQLLIFKVSNRFSGVPDRFSGSGSGTDFTLKISRVEAEDVGVYYCFQGSHVPFTFGQGTKLEIK
notes: Humanized F2.154.1
B6: in assay [1], the response was half-maximal at 1.46 nM (EC50) and the “Max MFI” value came to 28400 MFI. Moreover, in the assay with human GPC3-His protein, the Kd was 1.68 nM, the koff was 0.000415 s⁻¹ and the kon stood at 246000 M⁻¹ s⁻¹.

B7: hAb007LH2L1b (antibody, human IgG1, V domains shown)
VH: EVQLVQSGAEVKKPGSSVKVSCKASGYTFTDYEMHWVRQAPGQGLEWMGTIDPETGNTAYNQKFKGRVTITADKSTSTAYMELSSLRSEDTAVYYCTRPYSLTYWGQGTLVTVSS
VL: DIVMTQTPLSLPVTPGEPASISCRSSQSFVHSNRDTYLQWYLQKPGQSPQLLIYKVSNRFSGVPDRFSGSGSGTDFTLKISRVEAEDVGVYYCFQGSHVPYTFGQGTKLEIK
notes: Humanized F3.81.19
Regarding B7, in assay [1], it took 13.2 nM to reach a half-maximal effect (EC50) and the “Max MFI” value stood at 35800 MFI. In the assay with human GPC3-His protein, binding was put at a Kd of 3.58 nM, the koff amounted to 0.000315 s⁻¹ and the on-rate (kon) was found to be 88000 M⁻¹ s⁻¹.

B8: hAb006LH3L1b (antibody, human IgG1, V domains shown)
VH: EVQLVQSGAEVKKPGSSVKVSCKASGYTFTDYEIHWVRQAPGQGLEWMGAIDPKTGNTAYNQKFMGRVTLTADKSTSTAYMELSSLRSEDTAVYYCTRYFSFAYWGQGTLVTVSS
VL: DIVMTQTPLSLPVTPGEPASISCRSSQTFVHSNANTYLQWYLQKPGQSPQLLIYKVSNRFSGVPDRFSGSGSGTDFTLKISRVEAEDVGVYYCFQGSHVPYTFGQGTKLEIK
notes: Humanized F3.38.7
B8: in assay [1], a half-maximal response (EC50) required 1.78 nM and the “Max MFI” value was found to be 32500 MFI. In the assay with human GPC3-His protein, this molecule came in with a Kd of 8.4 nM, a koff of 0.00136 s⁻¹ and a kon of 162000 M⁻¹ s⁻¹.

B9: hAb006LH2L1b (antibody, human IgG1, V domains shown)
VH: EVQLVQSGAEVKKPGSSVKVSCKASGYTFTDYEIHWVRQAPGQGLEWMGAIDPKTGNTAYNQKFMGRVTITADKSTSTAYMELSSLRSEDTAVYYCTRYFSFAYWGQGTLVTVSS
VL: DIVMTQTPLSLPVTPGEPASISCRSSQTFVHSNANTYLQWYLQKPGQSPQLLIYKVSNRFSGVPDRFSGSGSGTDFTLKISRVEAEDVGVYYCFQGSHVPYTFGQGTKLEIK
notes: Humanized F3.38.7
As to B9, in assay [1], the EC50 stood at 1.83 nM and the “Max MFI” value was determined as 31500 MFI. In the assay with human GPC3-His protein, this molecule registered a Kd of 9.28 nM, an off-rate constant (koff) of 0.00128 s⁻¹ and a kon of 138000 M⁻¹ s⁻¹.

B10: hAb006LH3L1c (antibody, human IgG1, V domains shown)
VH: EVQLVQSGAEVKKPGSSVKVSCKASGYTFTDYEIHWVRQAPGQGLEWMGAIDPKTGNTAYNQKFMGRVTLTADKSTSTAYMELSSLRSEDTAVYYCTRYFSFAYWGQGTLVTVSS
VL: DIVMTQTPLSLPVTPGEPASISCRSSQTFVHSNRNTYLQWYLQKPGQSPQLLIYKVSNRFSGVPDRFSGSGSGTDFTLKISRVEAEDVGVYYCFQGSHVPYTFGQGTKLEIK
notes: Humanized F3.38.7
Turning to B10, in assay [1], the response was half-maximal at 4.06 nM (EC50) and the “Max MFI” value stood at 91600 MFI. In addition, in the assay with human GPC3-His protein, the Kd came out at 3.15 nM, the koff was 0.001 s⁻¹ and the kon is 319000 M⁻¹ s⁻¹.

B11: hAb007LH1L1b (antibody, human IgG1, V domains shown)
VH: EVQLVQSGAEVKKPGSSVKVSCKASGYTFSDYEMHWVRQAPGQGLEWMGTIDPETGNTAYNQKFKGRVTITADKSTSTAYMELSSLRSEDTAVYYCTRPYSLTYWGQGTLVTVSS
VL: DIVMTQTPLSLPVTPGEPASISCRSSQSFVHSNRDTYLQWYLQKPGQSPQLLIYKVSNRFSGVPDRFSGSGSGTDFTLKISRVEAEDVGVYYCFQGSHVPYTFGQGTKLEIK
notes: Humanized F3.81.19
B11: in assay [1], it took 12.4 nM to reach a half-maximal effect (EC50) and the “Max MFI” value is 35400 MFI. In the assay with human GPC3-His protein, this molecule showed a Kd of 2.21 nM, a koff of 0.000228 s⁻¹ and a kon of 103000 M⁻¹ s⁻¹.

B12: hAb007LH1L1c (antibody, human IgG1, V domains shown)
VH: EVQLVQSGAEVKKPGSSVKVSCKASGYTFSDYEMHWVRQAPGQGLEWMGTIDPETGNTAYNQKFKGRVTITADKSTSTAYMELSSLRSEDTAVYYCTRPYSLTYWGQGTLVTVSS
VL: DIVMTQTPLSLPVTPGEPASISCRSSQSFVHSNADTYLQWYLQKPGQSPQLLIYKVSNRFSGVPDRFSGSGSGTDFTLKISRVEAEDVGVYYCFQGSHVPYTFGQGTKLEIK
notes: Humanized F3.81.19
For the molecule B12, in assay [1], the EC50 worked out at 8.8 nM and the “Max MFI” value is 73600 MFI. Also, in the assay with human GPC3-His protein, the Kd was 4.28 nM, the koff was 0.000397 s⁻¹ and the kon is 92700 M⁻¹ s⁻¹.

B13: hAb006LH2L1 (antibody, human IgG1, V domains shown)
VH: EVQLVQSGAEVKKPGSSVKVSCKASGYTFTDYEIHWVRQAPGQGLEWMGAIDPKTGNTAYNQKFMGRVTITADKSTSTAYMELSSLRSEDTAVYYCTRYFSFAYWGQGTLVTVSS
VL: DIVMTQTPLSLPVTPGEPASISCRSSQTFVHSNGNTYLQWYLQKPGQSPQLLIYKVSNRFSGVPDRFSGSGSGTDFTLKISRVEAEDVGVYYCFQGSHVPYTFGQGTKLEIK
notes: Humanized F3.38.7
In the case of B13, in assay [1], the EC50 was determined as 1.65 nM and the “Max MFI” value was 32800 MFI. In the assay with human GPC3-His protein, the Kd was determined as 4.3 nM, the koff was 0.000678 s⁻¹ and the kon came out at 158000 M⁻¹ s⁻¹.

B14: hAb007LH1L1 (antibody, human IgG1, V domains shown)
VH: EVQLVQSGAEVKKPGSSVKVSCKASGYTFSDYEMHWVRQAPGQGLEWMGTIDPETGNTAYNQKFKGRVTITADKSTSTAYMELSSLRSEDTAVYYCTRPYSLTYWGQGTLVTVSS
VL: DIVMTQTPLSLPVTPGEPASISCRSSQSFVHSNGDTYLQWYLQKPGQSPQLLIYKVSNRFSGVPDRFSGSGSGTDFTLKISRVEAEDVGVYYCFQGSHVPYTFGQGTKLEIK
notes: Humanized F3.81.19
Turning to B14, in assay [1], the concentration for a half-maximal effect (EC50) worked out at 4.1 nM and the “Max MFI” value is 36300 MFI. Also, in the assay with human GPC3-His protein, the dissociation constant Kd turned out to be 1.05 nM, the koff was 0.000114 s⁻¹ and the kon was 109000 M⁻¹ s⁻¹.
